Assay [1] has as its target T1, human CD70, full length, on CHO cells (CHO-human CD70-B07) (human, UniProt P32970 1-193).
T1 construct: whole, on cells; Stably transfected CHO cells; also called CHO-CD70
T1 sequence (looked up): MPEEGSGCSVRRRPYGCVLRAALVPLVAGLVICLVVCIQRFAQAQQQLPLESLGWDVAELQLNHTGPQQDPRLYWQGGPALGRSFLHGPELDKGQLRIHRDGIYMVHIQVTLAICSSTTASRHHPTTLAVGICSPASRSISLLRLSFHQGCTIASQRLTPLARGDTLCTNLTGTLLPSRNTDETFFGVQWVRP
Nature of the assay: flow cytometry, Fab on CHO-human CD70 cells. On the procedure: The blank control cell CHO and stably-transfected cell line CHO-CD70 were prepared and added at 5×10⁴ cells/well into a 96-well plate respectively. 50 μL of Fab antibodies with different dilution gradients were added into each well and incubated at 4° C. for 60 minutes. The centrifuge was performed to discard the supernatant. The plate was washed with 0.5% BSA/PBS and added with 50 μL of a secondary antibody solution (Anti-human IgG F (ab′) 2-AF647, Jackson Immuno Research) and incubated at 4° C. for 45 minutes. The excess secondary antibody was washed off with 0.5% BSA. The PBS solution was added to resuspend cells for flow cytometry. The data was collected.
In general terms: A flow cytometer gives signals particle by particle.

For assay [2], the target named is T2, recombinant trimeric protein of human CD70 extracellular region (human CD70 mIgG Fc (knob) / mouse IgG Fc … (human, UniProt P01863 98-330 = IgG part)).
T2 construct: The ELISA and Octet texts say only 'recombinant CD70 protein' / 'CM352 antigen'; also called recombinant human CD70 protein; recombinant CD70 protein
T2 chain 1: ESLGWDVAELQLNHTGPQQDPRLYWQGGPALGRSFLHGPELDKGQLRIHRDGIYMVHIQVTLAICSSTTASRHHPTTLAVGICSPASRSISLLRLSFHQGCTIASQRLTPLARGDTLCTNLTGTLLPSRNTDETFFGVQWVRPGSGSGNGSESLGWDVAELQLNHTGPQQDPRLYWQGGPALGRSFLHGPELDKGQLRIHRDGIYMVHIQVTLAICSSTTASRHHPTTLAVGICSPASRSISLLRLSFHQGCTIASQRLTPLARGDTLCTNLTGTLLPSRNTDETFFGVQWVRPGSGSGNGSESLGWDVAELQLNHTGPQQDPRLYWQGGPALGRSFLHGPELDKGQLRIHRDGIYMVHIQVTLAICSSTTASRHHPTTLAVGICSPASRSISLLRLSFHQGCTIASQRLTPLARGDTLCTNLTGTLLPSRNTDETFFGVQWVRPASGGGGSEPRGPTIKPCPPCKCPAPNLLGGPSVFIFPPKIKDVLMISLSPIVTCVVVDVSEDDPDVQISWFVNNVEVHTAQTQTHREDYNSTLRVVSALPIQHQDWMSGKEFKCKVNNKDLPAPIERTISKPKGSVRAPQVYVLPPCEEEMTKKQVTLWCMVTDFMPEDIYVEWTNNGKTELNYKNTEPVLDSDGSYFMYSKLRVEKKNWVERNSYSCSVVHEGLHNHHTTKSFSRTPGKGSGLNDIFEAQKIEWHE
T2 chain 2: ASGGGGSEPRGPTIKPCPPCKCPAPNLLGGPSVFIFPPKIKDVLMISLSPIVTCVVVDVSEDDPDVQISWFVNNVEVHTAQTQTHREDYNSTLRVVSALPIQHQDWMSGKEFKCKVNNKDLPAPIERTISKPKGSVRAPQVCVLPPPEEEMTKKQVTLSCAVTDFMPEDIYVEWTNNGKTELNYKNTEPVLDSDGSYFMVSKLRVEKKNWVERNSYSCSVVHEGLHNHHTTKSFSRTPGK
Nature of the assay: BLI (Octet), biotin antigen on SA probe, Fab in solution. For orientation: BLI is a label-free optical method that tracks binding on a fibre tip over time.

Assay [3] concerns the target T2, recombinant trimeric protein of human …. Nature of the assay: competition ELISA, Fab titrated, human CD27 coated, biotin-CD70. On the procedure: The next day, the plate was washed 3 times with PBS, added with 200 μL of 2% defatted dry milk/PBS, blocked at room temperature for 2 hours, and washed once with PBS, 50 μL of different dilution gradients of Fab antibodies were added and incubated at room temperature for 30 minutes. […] The plate was washed 3 times with PBST and PBS and dried by spinning. A secondary antibody solution Streptavidin-coupled horseradish peroxidase SA-HRP (BD bioscience, Cat. No: 6222697) was diluted with 0.5% BSA in a ratio of 1:8000. 100 μl of the diluent was added into each well and incubate at room temperature for 30 minutes. The plate was washed 3 times with PBST and PBS and dried by spinning. 100 μl of the color development solution (TMB solution, Sigma, Cat. No: T2885) was added into each well and protected from light at 37° C. for reaction. After the substrate developed moderately, 50 μl of 2M concentrated sulfuric acid solution was added into each well to terminate the reaction. The OD450 nm was determined by using an enzyme-linked detector within 30 minutes, and the data was collected.
A general note: In an ELISA, binding on a coated surface is turned into a signal by an enzyme label.

Assay [4] has as its target T1, human CD70, full length, on CHO cells …. Put plainly: flow cytometry, chimeric IgG on CHO-human CD70 cells. On the procedure:
Different cells in logarithmic growth phase were taken, blocked with 3% BSA for 30 minutes, and plated to a 96-well U-plate at 5×10⁴ cells/100 μL. The centrifuge was performed at 1100 rpm for 3 minutes. The supernatant was discarded and the cells were gently tapped to be loosening. 50 μL of gradient diluted antibody was added (antibody concentration: from 30 μg/mL, 3-fold dilution for 5 gradients) per well, and incubated at 4° C. for 1 hour. After incubation, 180 μL of 0.5% BSA was added to each well for washing 3 times. 30 μL/well of secondary antibody AlexaFluro647 anti-human IgG (Jackson Immuno Research, Cat. No: 109-606-170) was added and incubated at 4° C. for 45 minutes. At the end of the incubation, each well was washed 3 times with 180 μL of 0.5% BSA and finally resuspended in 50 μL of PBS for iQue (Intellicyt, USA) assay.

In assay [5] the target is T2, recombinant trimeric protein of human …. Put plainly: competition ELISA, chimeric IgG titrated, CD27 coated, biotin-CD70, human pair. On the procedure:
The recombinant CD27 protein was coated at 1 μg/mL in a 96-well microtiter plate and incubated overnight at 4° C. The next day, the plate was washed 3 times with PBS, added with 200 μL of 2% defatted dry milk/PBS, blocked at room temperature for 2 hours, and washed once with PBS. The purified chimeric antibody was divided to 12 concentration gradients starting at 100 nM and diluted in a 1:3 gradient. […] of the antibody was added per well and incubated at room temperature for 30 minutes. […] The plate was washed 3 times with PBST and PBS and dried by spinning. A secondary antibody Streptavidin-coupled horseradish peroxidase SA-HRP (BD bioscience, cat. No: 6222697) was diluted with 0.5% BSA in a ratio of 1:8000. 100 μL of the diluent was added into each well and incubated at room temperature for 30 minutes. The plate was washed 3 times with PBST and PBS and dried by spinning. 100 μl of color development solution (TMB solution, Sigma, Cat. No: T2885) was added into each well and protected from light at 37° C. for reaction. After the substrate developed moderately, 50 μl of H₂SO₄ was added into each well to terminate the reaction. The OD450 nm was determined by using an enzyme-linked detector within 30 minutes, and the data was collected. The results were calculated by using Graph Pad Prism 5 software.

B1: 2B12 Fab antibody (Fab, V domains shown)
VH: QVQLQQSGPGLVQPSQSLSITCTVSGFSLTTYAVHWVRQSPGKGLEWLGVIWSTGITDYNAAFISRLSISKDNSKSQVFFKMNSLQSDDIAIYYCARNPYYGNLNAMDYWGQGTSVTVSS
VL: DIVLTQSPASLAVSLGQRATISCRASKSVDTSGYSFMHWYQQKPGQPPKLLIYLASNLESGVPARFSGSGSGTDFTLNIHPVEEEDAATYYCQHSRELPLTFGAGTKLELK
notes: Purified Fab from the mouse Fab phage display library
As to B1, in assay [1], a half-maximal effect (EC50) was put at 8.6 nM. The koff (in general, the first-order rate constant of dissociation) in assay [2] was 0.000125 s⁻¹. In addition, in assay [3], the IC50 (usually the point on the concentration scale where inhibition reaches its midpoint) stood at 0.29 nM.

B2: 14C12 Fab antibody (Fab, V domains shown)
VH: EVQLQQSGPELVKPGASVKMSCKASGYTFTDYVIHWVKQKPGQGLEWIGYLHPYNDDTKYNEKFKGKATLTSDKSSSTAYMELSSLTSEDSAVYYCARRGYYDYAWFADWGQGTLVTVSA
VL: DIVLTQSPASLAVSLGQRATISCRASKSVSASGYTWIHWYQQKPRQAPKLLIYLASNLESGVPARFSGSGSGTDFTLNIHPVEEEDAATYYCQHSRELPPTFGGGTKLEIK
notes: as for B1
Consider B2, for which the response in assay [1] was half-maximal at 28 nM (EC50). In assay [2], the koff amounted to 0.000321 s⁻¹. For the same molecule, the IC50 in assay [3] was 0.79 nM.

B3: 3B2 Fab antibody (Fab, V domains shown)
VH: EVQLKQSGPGLVQPSQSLSITCTVSGFSLTTYGVHWVRQSPGKGLEWLGVIWSTGITDYNAAFISRLSISKDNSKSQVFFKMNSLQADDTAIYYCARNSYYGNLYVMDYWGQGTSVTVSS
VL: DIVLTQSPASLAVSLGQRATISCRASKSVSASGYNFMHWYQQKPGQPPKLLIYLASNLESGVPARFSGSGSGTDFTLNIHPVEEEDAATYYCQHSRELPLTFGAGTKLELK
notes: as for B1
On to B3, for which the EC50 (commonly the concentration that produces a half-maximal response) in assay [1] was determined as 14.2 nM. In addition, in assay [2], the koff came out at 0.000325 s⁻¹. In assay [3], the IC50 was determined as 0.32 nM.

B4: 27A3 Fab antibody (Fab, V domains shown)
VH: EVQLQESGPGLVQPSQSLSITCTVSGFSLTTYAVHWVRQSPGKGLEWLGVIWSTGITDYNADFISRLSISKDNSKSQVFFKMDSLQSDDTAIYFCARNHYYGNLNAMDYWGQGTSVTVSS
VL: DIVLTQSPASLAVSLGQRATISCRASKSVSTSGYSFMHWYQQKPGQPPKLLIYLASNLESGVPARFSGSGSGTDFTLNIHPVEEEDAATYYCQHSRELPYTFGGGTKLEIK
notes: as for B1
Molecule B4 had an EC50 in assay [1] of 12.4 nM. In addition, in assay [2], the off-rate (koff) came to 0.000172 s⁻¹. Also, in assay [3], the IC50 was found to be 0.51 nM.

B5: 12A1 Fab antibody (Fab, V domains shown)
VH: QVQLQQSGPGLVQPSQSLSITCTVSGFSLTTYAVHWVRQSPGKGLEWLGVIWSTGITDYNAAFISRLSISKDNSKSQVFFKMDSLQSDDTAIYFCARNPHYGNLNAMDYWGQGTSVTVSS
VL: DIVLTQSPASLAVSLGQRATISCRASKSVSASGYTWMHWYQQKPGQAPKLLIYLASNLESGVPARFSGSGSGTDFTLNIHPVEEEDAATYYCQHSRELPPTFGGGTKLEIK
notes: as for B1
B5 came in with an EC50 in assay [1] of 17.7 nM. Besides, the koff in assay [2] was determined as 0.000317 s⁻¹. Besides, the IC50 in assay [3] stood at 1.88 nM.

B6: 23A11 Fab antibody (Fab, V domains shown)
VH: QVQLQQSGPGLVQPSQSLSITCTVSGFSLTTYAVHWVRQSPGKGLEWLGVIWSVGSTDYNAAFISRLSISKDNSKSQVFFKMNSLQADDTAIYYCARNIYYGNVYAMDYWGQGTSVTVSS
VL: DIVLTQSPASLAVSLGQRATISCRASKSVDASGYSFMHWYQQKAGQPPKLLIYLASNLESGVPARFSGRGSGTDFTLNIHPVEEGDAATYYCQHSRELPLTFGAGTKLEIK
notes: as for B1
As for B6, the EC50 in assay [1] was 15.6 nM. Further, the dissociation rate constant (koff) in assay [2] is 0.000403 s⁻¹. In assay [3], the IC50 stood at 0.5 nM.

B7: 12A1 chimeric antibody (antibody, V domains shown)
VH: QVQLQQSGPGLVQPSQSLSITCTVSGFSLTTYAVHWVRQSPGKGLEWLGVIWSTGITDYNAAFISRLSISKDNSKSQVFFKMDSLQSDDTAIYFCARNPHYGNLNAMDYWGQGTSVTVSS
VL: DIVLTQSPASLAVSLGQRATISCRASKSVSASGYTWMHWYQQKPGQAPKLLIYLASNLESGVPARFSGSGSGTDFTLNIHPVEEEDAATYYCQHSRELPPTFGGGTKLEIK
On to B7, for which the EC50 in assay [4] stood at 7.55 nM. Besides, the IC50 in assay [5] stood at 0.12 nM.

B8: 23A11 chimeric antibody (antibody, V domains shown)
VH: QVQLQQSGPGLVQPSQSLSITCTVSGFSLTTYAVHWVRQSPGKGLEWLGVIWSVGSTDYNAAFISRLSISKDNSKSQVFFKMNSLQADDTAIYYCARNIYYGNVYAMDYWGQGTSVTVSS
VL: DIVLTQSPASLAVSLGQRATISCRASKSVDASGYSFMHWYQQKAGQPPKLLIYLASNLESGVPARFSGRGSGTDFTLNIHPVEEGDAATYYCQHSRELPLTFGAGTKLEIK
For B8, in assay [4], the midpoint of the response, the EC50, lay at 11.9 nM. Also, in assay [5], the IC50 was 0.07 nM.

B9: 32D1 Fab antibody (Fab, V domains shown)
VH: EVQLQQSGPELVKPGASLKMSCKASGYTFTDYVIHWVKQKPGQGLEWIGYLHPYNDDTKYNEKFKGKATLTSDKSSSTAYMELNSLTSEDSAVYYCARRGYYDYAWFADWGQGTLVTVSA
VL: DIVLTQSPASLAVSLGQRATISCKASKSVSASGYTWMHWYQQKPGQAPKLLIYLASNLESGVPARFSGSGSGTDFTLNIHPVEEEDAATYYCQHSRELPPTFGGGTKLEIK
notes: as for B1
Consider B9, for which the concentration giving a half-maximal response (EC50) in assay [1] amounted to 8.1 nM. Further, in assay [2], the koff was determined as 0.00183 s⁻¹. Moreover, in assay [3], the IC50 was 2.26 nM.

These data come from patent publication US20240247072A1 (KEYMED BIOSCIENCES, published 2024).
